Measured values reported in article PMC4930721 (Cancer discovery, 2016).
Where no end group is shown, it is not given here. Me3 = trimethyl-lysine

Target: LEDGF PWWP (residues 1-120), 15N-labeled (UniProt O75475 1-120, uniformly 15N-labeled)
Assay: NMR titration

LEDGF PWWP (residues 1-120), 15N-labeled, sequence (O75475 1-120): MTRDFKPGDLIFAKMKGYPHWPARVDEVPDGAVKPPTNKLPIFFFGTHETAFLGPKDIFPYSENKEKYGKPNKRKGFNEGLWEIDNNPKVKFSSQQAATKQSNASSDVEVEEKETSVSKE

**Q.** For ATGGVK(Me3)KPHR [histone H3K36me3 peptide], which Kd is on record?
**A.** Its Kd is 4.4 mM.
